In data set [1] the target is Glutaconate CoA-transferase from A. fermentans (Acidaminococcus fermentans, UniProt Q59111+Q59112). As to conditions: Buckel et al. 1981; cited from earlier work.
Data set [2] is described as follows: 2-Hydroxyglutarate dehydrogenase activity in recombinant E. coli BL21. It is filed as biochemical, A. fermentans. On the procedure: 2-Hydroxyglutarate dehydrogenase activity was measured at ambient temperature in cuvettes of 0.5 ml total volume containing 0.1 M Tris/HCl pH 8.0, 0.2 mM NADH and 2-hydroxyglutarate dehydrogenase at room temperature. After addition of 1 mM α-ketoglutarate, the absorbance decrease of NADH was monitored at 340 nm (ε=6.3 mM^−1 cm^−1) (Bresser J (1997) (R)-2-Hydroxyglutarat-Dehydrogenase aus Acidaminococcus fermentans. PhD Thesis, Philipps-Universitä t Marburg, Germany; Martins B M, Macedo-Ribeiro S, Bresser J, Buckel W, Messerschmidt A (2005) Structural basis for stereo-specific catalysis in NAD^+-dependent (R)-2-hydroxyglutarate dehydrogenase from Acidaminococcus fermentans. Febs J 272:269-281).
(§1) The genes were transformed into modified E. coli BL21-CodonPlus (DE3). An overnight anaerobic preculture (100 ml) of a fresh single colony was used to inoculate 1 liter Standard I medium, described above, containing antibiotics (carbenicillin, 100 μg·ml^−1; chloramphenicol, 50 μg·ml^−1) and grown at the same conditions. When the culture reached OD578=0.2, gene expression was induced with isopropyl-1-thio-β-D-galactoside, IPTG (240 mg·liter^−1) and anhydrotetracycline, AHT (200 μg·liter^−1). […]
(§2) In Table 9 the enzymatic activities are shown, which were measured in the recombinant E. coli strain.

Data set [3] in a line: Glutaconate CoA-transferase activity in recombinant E. coli BL21. The format is biochemical, A. fermentans. The procedure: Glutaconate CoA-transferase activity assay was performed aerobically at room temperature. The increase of absorbance was followed at 412 nm, Δε=14 mM^−1 cm^−1.
The genes were transformed into modified E. coli BL21-CodonPlus (DE3). An overnight anaerobic preculture (100 ml) of a fresh single colony was used to inoculate 1 liter Standard I medium, described above, containing antibiotics (carbenicillin, 100 μg·ml^−1; chloramphenicol, 50 μg·ml^−1) and grown at the same conditions. When the culture reached OD578=0.2, gene expression was induced with isopropyl-1-thio-β-D-galactoside, IPTG (240 mg·liter^−1) and anhydrotetracycline, AHT (200 μg·liter^−1). Cells were harvested 3 hours after induction (at OD578=0.573), washed and suspended in 20 ml of buffer (50 mM MOPS, 5 mM MgCl2 and 2 mM DTT) under anoxic conditions. The induced E. coli cells were lysed by French press and cell debris was removed by ultracentrifugation at 100 000 g at 4° C. for 1 hour.
as §2

Substrate in data set [4]: CC(C)(COP(=O)(O)OP(=O)(O)OC[C@H]1O[C@@H](n2cnc3c(N)ncnc32)[C@H](O)[C@@H]1OP(=O)(O)O)[C@@H](O)C(=O)NCCC(=O)NCCSC(=O)[C@H](O)CCC(=O)O
The data set is described as follows: Substrate kinetics of 2-hydroxyglutaryl-CoA dehydratase with activator. Conditions: other: substrate of the dehydratase; pH 7.0. The format is biochemical, Clostridium symbiosum. The procedure: (§3) 2-Hydroxyglutaryl-CoA dehydratase activity was measured under anoxic conditions at ambient temperature in cuvettes of 0.5 ml total volume containing 50 mM Mops/KOH pH 7.0, 10 mM dithiothreitol, 5 mM MgCl2, 0.1 mM dithionite, 0.4 mM ATP, and […] with activator. After 10 minutes of incubation the reaction was started with 2 mM acetyl-CoA and 2 mM (R)-2-hydroxyglutarate. The increase of absorbance due to the formation of glutaconyl-CoA was followed at 290 nm (ε=2.2 mM^−1 cm^−1) (Kim J, Darley D J, Buckel W, Pierik A J (2008) An allylic ketyl radical intermediate in clostridial amino-acid fermentation. Nature 452:239-242).
(§4) a) 2-Hydroxyglutaryl-CoA dehydratase from Clostridium symbiosum and activator from Acidaminococcus fermentans

Substrate in data set [5]: CC(C)(COP(=O)(O)OP(=O)(O)OC[C@H]1O[C@@H](n2cnc3c(N)ncnc32)[C@H](O)[C@@H]1OP(=O)(O)O)[C@@H](O)C(=O)NCCC(=O)NCCSC(=O)C(O)CCCC(=O)O
The description is as above. It is filed as biochemical, Clostridium symbiosum. As to conditions: other: substrate of the dehydratase; pH 7.0. The procedure: as §3, §4

Substrate in data set [6]: CC(C)(COP(=O)(O)OP(=O)(O)OC[C@H]1O[C@@H](n2cnc3c(N)ncnc32)[C@H](O)[C@@H]1OP(=O)(O)O)[C@@H](O)C(=O)NCCC(=O)NCCSC(=O)/C=C/C=C/C(=O)O
The description is as above. As to conditions: other: substrate of the dehydratase; pH 7.0. The format is biochemical, Clostridium symbiosum. On the procedure:
as §3, §4

Data set [7] is described as follows: 2-Hydroxyglutaryl-CoA dehydratase activity in recombinant E. coli BL21. It is filed as biochemical, C. symbiosum. Conditions: recombinant E. coli BL21, with activator. The procedure:
as §3, §1, §2

A word on the Km: it is the concentration of substrate that gives half-maximal velocity. In general, kcat refers to the number of substrate molecules converted per active site and unit of time at saturation.

For the molecule `O=C(O)CC[C@@H](O)C(=O)O` [(R)-2-hydroxyglutarate], the “Substrate of the enzyme” value in data set [1] is recorded as “acts on”. In the case of `O=C(O)CCCCC(=O)O` [adipate], the “Substrate of the enzyme” value in data set [1] is recorded as “acts on”.

For `CCC(=O)O` [propionate], the “Substrate of the enzyme” value in data set [1] is “acts on”.

Turning to `C=CC(=O)O` [acrylate], the “Substrate of the enzyme” value in data set [1] was “acts on”. In the case of `CC(=O)O` [acetate], the “Substrate of the enzyme” value in data set [1] is given as “acts on”.

On to `O=C(O)/C=C/CC(=O)O` [(E)-glutaconate], for which the “Substrate of the enzyme” value in data set [1] is recorded as “acts on”.

B1: 2-Hydroxyglutarate dehydrogenase: enzyme from A. fermentans (hgdH) expressed in recombinant E. coli BL21 (protein)
chain: MKVLCYGVRDVELPIFEACNKEFGYDIKCVPDYLNTKETAEMAAGFDAVILRGNCFANKQNLDIYKKLGVKYILTRTAGTDHIDKEYAKELGFPMAFVPRYSPNAIAELAVTQAMMLLRHTAYTTSRTAKKNFKVDAFMFSKEVRNCTVGVVGLGRIGRVAAQIFHGMGATVIGEDVFEIKGIEDYCTQVSLDEVLEKSDIITIHAPYIKENGAVVTRDFLKKMKDGAILVNCARGQLVDTEAVIEAVESGKLGGYGCDVLDGEASVFGKDLEGQKLENPLFEKLVDLYPRVLITPHLGSYTDEAVKNMVEVSYQNLKDLAETGDCPNKIK
modifications: Acidaminococcus fermentans
notes: enzyme from A. fermentans (hgdH) expressed in recombinant E. coli BL21
With B1, in data set [2], the “Activity, U” value amounted to 730 U and the “Specific activity, U/mg” value turned out to be 250 U/mg.

B2: Glutaconate CoA-transferase: enzyme from A. fermentans (gctAB) expressed in recombinant E. coli BL21 (protein)
chain 1: LSKVMTLKDAIAKYVHSGDHIALGGFTTDRKPYAAVFEILRQGITDLTGLGGAAGGDWDMLIGNGRVKAYINCYTANSGVTNVSRRFRKWFEAGKLTMEDYSQDVIYMMWHAAALGLPFLPVTLMQGSGLTDEWGISKEVRKTLDKVPDDKFKYIDNPFKPGEKVVAVPVPQVDVAIIHAQQASPDGTVRIWGGKFQDVDIAEAAKYTIVTCEEIISDEEIRRDPTKNDIPGMCVDAVVLAPYGAHPSQCYGLYDYDNPFLKVYDKVSKTQEDFDAFCKEWVFDLKDHDEYLNKLGATRLINLKVVPGLGYHIDMTKEDK
chain 2: MADYTNYTNKEMQAVTIAKQIKNGQVVTVGTGLPLIGASVAKRVYAPDCHIIVESGLMDCSPVEVPRSVGDLRFMAHCGCIWPNVRFVGFEINEYLHKANRLIAFIGGAQIDPYGNVNSTSIGDYHHPKTRFTGSGGANGIATYSNTIIMMQHEKRRFMNKIDYVTSPGWIDGPGGRERLGLPGDVGPQLVVTDKGILKFDEKTKRMYLAAYYPTSSPEDVLENTGFDLDVSKAVELEAPDPAVIKLIREEIDPGQAFIQVPTEAK
modifications: Acidaminococcus fermentans
notes: enzyme from A. fermentans (gctAB) expressed in recombinant E. coli BL21
For B2, in data set [3], the “Activity, U” value was found to be 0.71 U and the “Specific activity, U/mg” value is listed as 0.25 U/mg.

B3: 2-Hydroxyglutaryl-CoA dehydratase from Clostridium symbiosum and activator from Acidaminococcus fermentans ([Clostridium] symbiosum) (protein)
chain 1: MAKQVSPGVLALRKVVDDVHKEAREAKARGELVGWSSSKFPCELAAAFDLNVMYPENQAAGIAANRYGEMMCQAAEDLGYDNDICGYARISLAYAAGVRVSRKYDAETGEYIIDPATGKPLKDAEGNVVIDEATGKPKKDPKTQTPYLVLDNLLEIEALPDGPEKERRLEAISPIRQMRIPQPDFVLCCNNICNCMTKWYENIARMCNVPLIMIDIPYNNTVEVHDDNVKYVRAQFDKAIKQLEELTGKKFDEKKFEKACSNANRTAQAWLKVCDYLQYKPAPYSGFDLFNHMADVVTARARVEAAEAFELLADDLEETVKKGETTTPFPEKYRVMFEGIPCWPKLPNLFKPLKEHGVNVTAVVYAPAFGFVYNNIDEMARAYYKAPNSVCIEQGVDWREGICRDNKVDGVLVHYNRSCKPWSGYMAEMQRRFTEDLGVPCAGFDGDQADPRNFNAAQYETRVQGLVEAMEANKQAKEAK
chain 2: MSINALLDEFKVKAATPKQQLAEYKAQGKKVIGVLPYYAPEELVYAAGMVPMGIWGSNNKTISRAKEYCATFYCTIAQLALEMLLDGTMDQLDGIITPTICDTLRPMSQNFRVAMGDKMAVIFLAQPQNRFEDFGLQFSVDQYTNVKKELEKVAGKEITNEAIQDAIKVYNKSRAARRKFVELASAHCDVITPTKRSAVLKSFFFMEKPEYIEKLEELNAELEKLPVCDWQGTKVVTSGIICDNPKLLEIFEENNIAIAADDVGHESRSFRVDAPEDEADALMALAKQFANMDYDVLLYDPKSTENRRGEFIANMVKESGAQGLVLFMQQFCDPEEMEYPYLKKALNNAGIPHIKLGIDQQMRDFGQASTAIQAFADVLEMQK
With B3, the Km was determined as 52 µM in data set [4], 100 µM in data set [5] and 570 µM in data set [6]. Besides, the kcat in data set [4] turned out to be 83 s⁻¹; in data set [5], 17.4 s⁻¹; in data set [6] it was 1.9 s⁻¹.

B4: 2-Hydroxyglutaryl-CoA dehydratase + activator: dehydratase (hgdAB) from C. symbiosum with activator (hgdC) from A. fermentans, expressed in E. coli BL21 (protein, listed as Clostridium symbiosum)
chain 1: MAKQVSPGVLALRKVVDDVHKEAREAKARGELVGWSSSKFPCELAAAFDLNVMYPENQAAGIAANRYGEMMCQAAEDLGYDNDICGYARISLAYAAGVRVSRKYDAETGEYIIDPATGKPLKDAEGNVVIDEATGKPKKDPKTQTPYLVLDNLLEIEALPDGPEKERRLEAISPIRQMRIPQPDFVLCCNNICNCMTKWYENIARMCNVPLIMIDIPYNNTVEVHDDNVKYVRAQFDKAIKQLEELTGKKFDEKKFEKACSNANRTAQAWLKVCDYLQYKPAPYSGFDLFNHMADVVTARARVEAAEAFELLADDLEETVKKGETTTPFPEKYRVMFEGIPCWPKLPNLFKPLKEHGVNVTAVVYAPAFGFVYNNIDEMARAYYKAPNSVCIEQGVDWREGICRDNKVDGVLVHYNRSCKPWSGYMAEMQRRFTEDLGVPCAGFDGDQADPRNFNAAQYETRVQGLVEAMEANKQAKEAK
chain 2: MSINALLDEFKVKAATPKQQLAEYKAQGKKVIGVLPYYAPEELVYAAGMVPMGIWGSNNKTISRAKEYCATFYCTIAQLALEMLLDGTMDQLDGIITPTICDTLRPMSQNFRVAMGDKMAVIFLAQPQNRFEDFGLQFSVDQYTNVKKELEKVAGKEITNEAIQDAIKVYNKSRAARRKFVELASAHCDVITPTKRSAVLKSFFFMEKPEYIEKLEELNAELEKLPVCDWQGTKVVTSGIICDNPKLLEIFEENNIAIAADDVGHESRSFRVDAPEDEADALMALAKQFANMDYDVLLYDPKSTENRRGEFIANMVKESGAQGLVLFMQQFCDPEEMEYPYLKKALNNAGIPHIKLGIDQQMRDFGQASTAIQAFADVLEMQK
chain 3: MSIYTLGIDVGSTASKCIILKDGKEIVAKSLVAVGTGTSGPARSISEVLENAHMKKEDMAFTLATGYGRNSLEGIADKQMSELSCHAMGASFIWPNVHTVIDIGGQDVKVIHVENGTMTNFQMNDKCAAGTGRFLDVMANILEVKVSDLAELGAKSTKRVAISSTCTVFAESEVISQLSKGTDKIDIIAGIHRSVASRVIGLANRVGIVKDVVMTGGVAQNYGVRGALEEGLGVEIKTSPLAQYNGALGAALYAYKKAAK
modifications: Acidaminococcus fermentans
For B4, in data set [7], the “Activity, U” value came to 0.23 U and the “Specific activity, U/mg” value was determined as 0.80 U/mg.

(Values after patent US8778645B2, “Method for the production of glutaconate” (BASF SE, priority 2009, dated 2014).)
